The chains are these.
B1: H1_L1.71 (antibody, V domains shown)
VH: EVQLLESGGGLVQPGGSLRLSCAASGFTFSSYAMSWVRQAPGKGLEWVSTISGSGDSTYYADSVKGRFTISRDNSKNTLYLQMNSLRAEDTAVYYCAKSGPGLRQVGFDYWGQGTLVTVSS
VL: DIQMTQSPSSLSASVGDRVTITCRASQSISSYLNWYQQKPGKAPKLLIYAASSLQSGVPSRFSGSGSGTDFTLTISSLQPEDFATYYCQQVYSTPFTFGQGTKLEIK
B2: H1L1 (antibody, V domains shown)
VH: EVQLLESGGGLVQPGGSLRLSCAASGFTFSSYAMSWVRQAPGKGLEWVSTISGSGDSTYYADSVKGRFTISRDNSKNTLYLQMNSLRAEDTAVYYCAKSGPGLRQVGFDYWGQGTLVTVSS
VL: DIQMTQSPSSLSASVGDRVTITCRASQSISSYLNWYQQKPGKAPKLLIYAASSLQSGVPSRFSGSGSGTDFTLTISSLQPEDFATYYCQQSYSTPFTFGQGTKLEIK
B3: H1.1_L1.71 (antibody, V domains shown)
VH: EVQLLESGGGLVQPGGSLRLSCAASGFTFSSYYMSWVRQAPGKGLEWVSTISGSGDSTYYADSVKGRFTISRDNSKNTLYLQMNSLRAEDTAVYYCAKSGPGLRQVGFDYWGQGTLVTVSS
VL: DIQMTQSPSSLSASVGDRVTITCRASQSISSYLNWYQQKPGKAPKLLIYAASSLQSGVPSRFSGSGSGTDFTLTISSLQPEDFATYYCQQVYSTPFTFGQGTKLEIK
B4: H1.1_L1 (antibody, V domains shown)
VH: EVQLLESGGGLVQPGGSLRLSCAASGFTFSSYYMSWVRQAPGKGLEWVSTISGSGDSTYYADSVKGRFTISRDNSKNTLYLQMNSLRAEDTAVYYCAKSGPGLRQVGFDYWGQGTLVTVSS
VL: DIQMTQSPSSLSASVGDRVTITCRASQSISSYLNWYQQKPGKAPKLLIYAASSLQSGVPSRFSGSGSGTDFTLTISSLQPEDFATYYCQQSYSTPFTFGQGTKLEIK

Experimental findings from US20250122299A1 (published 2025) are described below.

This experiment deals with human CD28 (human, UniProt P10747 19-220). As to the kind of experiment: -; scFv VHVL, 1+1 Fab-scFv-Fc format.
The term Kd denotes the free concentration of one partner at which half of the binding sites on the other are occupied at equilibrium, for simple one-to-one binding. The low end stands for a tighter complex, the high end for a looser complex. For the molecule B1, the equilibrium dissociation constant (Kd) was 180 nM.
Take B2: binding was put at a Kd of 1000 nM.
For the molecule B3, the Kd was found to be 96 nM.
The figure for B4 is 600 nM.
